The text below walks through data of the supplement of paper PMC5998384.

Data set [1] has as its system HeLa Kyoto. Kind of data set: thermal stability score vs G1/S (z-score of summed log2 fold changes over temperatures); higher = more thermally stable than in G1/S.
For data set [2], the system named is HeLa Kyoto. Kind of data set: melting temperature (median over replicates), in situ; higher = more thermally stable.
Data set [3] relates to HeLa Kyoto. The data set can be described thus: solubility change mitosis vs G1/S (difference of NP-40 vs SDS log2 ratios) (log2 ratio difference); higher = more soluble in mitosis.
Data set [4] relates to HeLa Kyoto. Kind of data set: solubility in G1/S (NP-40 vs SDS abundance) (log2 ratio); higher = more soluble. Particulars: cell cycle stage: G1/S.
The mark [5] stands for this setting: cell cycle stage: early G1 (4.5 h after nocodazole release).
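Throughout, for melting temperature (median over replicates), in situ: HeLa Kyoto cells synchronized by double thymidine or nocodazole block, proteins quantified by TMT10plex mass spectrometry, three independent biological replicates.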
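Throughout, for solubility change mitosis vs G1/S (difference of NP-40 vs SDS log2 ratios): synchronized HeLa Kyoto cells (double thymidine block for G1/S, nocodazole release for mitosis), protein amounts in NP-40 versus SDS lysates quantified by mass spectrometry, three biological replicates.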
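Throughout, for solubility in G1/S (NP-40 vs SDS abundance): HeLa Kyoto cells arrested at G1/S by double thymidine block, proteins quantified by TMT10plex mass spectrometry in mild NP-40 versus SDS extracts, three biological replicates.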
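Throughout, for thermal stability score vs G1/S (z-score of summed log2 fold changes over temperatures): synchronized HeLa Kyoto cells, proteins quantified by TMT10plex mass spectrometry, three biological replicates, mitosis taken 0.5 h after nocodazole release, G1/S directly after double thymidine block.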

With “MKRRTDPECTAPIKKQKKRVAELALSLSSTSDDEPPSSVSHGAKASTTSLSGSDSETEGKQHSSDSFDDAFKADSLVEGTSSRYSMYNSVSQKLMAKMGFREGEGLGKYSQGRKDIVEASSQKGRRGLGLTLRGFDQELNVDWRDEPEPSACEQVSWFPECTTEIPDTQEMSDWMVVGKRKMIIEDETEFCGEELLHSVLQCKSVFDVLDGEEMRRARTRANPYEMIRGVFFLNRAAMKMANMDFVFDRMFTNPRDSYGKPLVKDREAELLYFADVCAGPGGFSEYVLWRKKWHAKGFGMTLKGPNDFKLEDFYSASSELFEPYYGEGGIDGDGDITRPENISAFRNFVLDNTDRKGVHFLMADGGFSVEGQENLQEILSKQLLLCQFLMALSIVRTGGHFICKTFDLFTPFSVGLVYLLYCCFERVCLFKPITSRPANSERYVVCKGLKVGIDDVRDYLFAVNIKLNQLRNTDSDVNLVVPLEVIKGDHEFTDYMIRSNESHCSLQIKALAKIHAFVQDTTLSEPRQAEIRKECLRLWGIPDQARVAPSSSDPKSKFFELIQGTEIDIFSYKPTLLTSKTLEKIRPVFDYRCMVSGSEQKFLIGLGKSQIYTWDGRQSDRWIKLDLKTELPRDTLLSVEIVHELKGEGKAQRKISAIHILDVLVLNGTDVREQHFNQRIQLAEKFVKAVSKPSRPDMNPIRVKEVYRLEEMEKIFVRLEMKIIKGSSGTPKLSYTGRDDRHFVPMGLYIVRTVNEPWTMGFSKSFKKKFFYNKKTKDSTFDLPADSIAPFHICYYGRLFWEWGDGIRVHDSQKPQDQDKLSKEDVLSFIQMHRA [CMTR1]”, the thermal stability score turned out to be 0.699 in the data set on HeLa Kyoto [1] (setting [5]) and 1.05 in the data set with HeLa Kyoto [1] (cell cycle stage: mitosis). For the same sequence, the melting temperature in the data set with HeLa Kyoto [2] (cell cycle stage: G1/S) came out at 49.7 °C; with HeLa Kyoto [2] (cell cycle stage: mitosis), 51 °C. Also, the “solubility change mitosis (log2)” value in the data set on HeLa Kyoto [3] was -0.0832. Also, in the data set on HeLa Kyoto [4], the “solubility in G1/S (log2)” value was -0.186.

For “MSFLKSFPPPGPAEGLLRQQPDTEAVLNGKGLGTGTLYIAESRLSWLDGSGLGFSLEYPTISLHALSRDRSDCLGEHLYVMVNAKFEEESKEPVADEEEEDSDDDVEPITEFRFVPSDKSALEAMFTAMCECQALHPDPEDEDSDDYDGEEYDVEAHEQGQGDIPTFYTYEEGLSHLTAEGQATLERLEGMLSQSVSSQYNMAGVRTEDSIRDYEDGMEVDTTPTVAGQFEDADVDH [CLNS1A]”, the thermal stability score with HeLa Kyoto [1] (setting [5]) was -0.798; with HeLa Kyoto [1] (cell cycle stage: mitosis), -0.57. In addition, the melting temperature came to 51.7 °C in the data set on HeLa Kyoto [2] (cell cycle stage: G1/S) and 52.6 °C in the data set on HeLa Kyoto [2] (cell cycle stage: mitosis). Besides, the “solubility change mitosis (log2)” value with HeLa Kyoto [3] is 0.0376. The “solubility in G1/S (log2)” value in the data set with HeLa Kyoto [4] was -0.106.

For the sequence “MAALKSWLSRSVTSFFRYRQCLCVPVVANFKKRCFSELIRPWHKTVTIGFGVTLCAVPIAQKSEPHSLSSEALMRRAVSLVTDSTSTFLSQTTYALIEAITEYTKAVYTLTSLYRQYTSLLGKMNSEEEDEVWQVIIGARAEMTSKHQEYLKLETTWMTAVGLSEMAAEAAYQTGADQASITARNHIQLVKLQVEEVHQLSRKAETKLAEAQIEELRQKTQEEGEERAESEQEAYLRED [DIABLO]”, the thermal stability score with HeLa Kyoto [1] (setting [5]) was -0.685; in the data set with HeLa Kyoto [1] (cell cycle stage: mitosis), -1.02. Also, the melting temperature was determined as 54.9 °C with HeLa Kyoto [2] (cell cycle stage: G1/S) and 53.3 °C with HeLa Kyoto [2] (cell cycle stage: mitosis). In addition, the “solubility change mitosis (log2)” value in the data set on HeLa Kyoto [3] turned out to be 0.345. Moreover, the “solubility in G1/S (log2)” value in the data set with HeLa Kyoto [4] is -0.173.

Turning to “MPSKSLVMEYLAHPSTLGLAVGVACGMCLGWSLRVCFGMLPKSKTSKTHTDTESEASILGDSGEYKMILVVRNDLKMGKGKVAAQCSHAAVSAYKQIQRRNPEMLKQWEYCGQPKVVVKAPDEETLIALLAHAKMLGLTVSLIQDAGRTQIAPGSQTVLGIGPGPADLIDKVTGHLKLY [PTRH2]”, the thermal stability score was -0.625 in the data set on HeLa Kyoto [1] (setting [5]) and -2.48 with HeLa Kyoto [1] (cell cycle stage: mitosis). The melting temperature in the data set on HeLa Kyoto [2] (cell cycle stage: G1/S) came to 52.3 °C; in the data set on HeLa Kyoto [2] (cell cycle stage: mitosis) it was 52.6 °C. In addition, the “solubility change mitosis (log2)” value in the data set on HeLa Kyoto [3] stood at 0.0782. The “solubility in G1/S (log2)” value in the data set with HeLa Kyoto [4] is 0.447.

Turning to “MVADPPRDSKGLAAAEPTANGGLALASIEDQGAAAGGYCGSRDQVRRCLRANLLVLLTVVAVVAGVALGLGVSGAGGALALGPERLSAFVFPGELLLRLLRMIILPLVVCSLIGGAASLDPGALGRLGAWALLFFLVTTLLASALGVGLALALQPGAASAAINASVGAAGSAENAPSKEVLDSFLDLARNIFPSNLVSAAFRSYSTTYEERNITGTRVKVPVGQEVEGMNILGLVVFAIVFGVALRKLGPEGELLIRFFNSFNEATMVLVSWIMWYAPVGIMFLVAGKIVEMEDVGLLFARLGKYILCCLLGHAIHGLLVLPLIYFLFTRKNPYRFLWGIVTPLATAFGTSSSSATLPLMMKCVEENNGVAKHISRFILPIGATVNMDGAALFQCVAAVFIAQLSQQSLDFVKIITILVTATASSVGAAGIPAGGVLTLAIILEAVNLPVDHISLILAVDWLVDRSCTVLNVEGDALGAGLLQNYVDRTESRSTEPELIQVKSELPLDPLPVPTEEGNPLLKHYRGPAGDATVASEKESVM [SLC1A5]”, the thermal stability score in the data set with HeLa Kyoto [1] (setting [5]) is -1.47; in the data set on HeLa Kyoto [1] (cell cycle stage: mitosis), -1.94. For the same sequence, the melting temperature in the data set with HeLa Kyoto [2] (cell cycle stage: mitosis) was 65.7 °C. Besides, the “solubility change mitosis (log2)” value in the data set on HeLa Kyoto [3] is -0.123. Besides, in the data set with HeLa Kyoto [4], the “solubility in G1/S (log2)” value was found to be 0.196.

With “MAQAGVVGEVTQVLCAAGGALELPELRRRLRMGLSADALERLLRQRGRFVVAVRAGGAAAAPERVVLAASPLRLCRAHQGSKPGCVGLCAQLHLCRFMVYGACKFLRAGKNCRNSHSLTTEHNLSVLRTHGVDHLSYNELCQLLFQNDPWLLPEICQHYNKGDGPHGSCAFQKQCIKLHICQYFLQGECKFGTSCKRSHDFSNSENLEKLEKLGMSSDLVSRLPTIYRNAHDIKNKSSAPSRVPPLFVPQGTSERKDSSGSVSPNTLSQEEGDQICLYHIRKSCSFQDKCHRVHFHLPYRWQFLDRGKWEDLDNMELIEEAYCNPKIERILCSESASTFHSHCLNFNAMTYGATQARRLSTASSVTKPPHFILTTDWIWYWSDEFGSWQEYGRQGTVHPVTTVSSSDVEKAYLAYCTPGSDGQAATLKFQAGKHNYELDFKAFVQKNLVYGTTKKVCRRPKYVSPQDVTTMQTCNTKFPGPKSIPDYWDSSALPDPGFQKITLSSSSEEYQKVWNLFNRTLPFYFVQKIERVQNLALWEVYQWQKGQMQKQNGGKAVDERQLFHGTSAIFVDAICQQNFDWRVCGVHGTSYGKGSYFARDAAYSHHYSKSDTQTHTMFLARVLVGEFVRGNASFVRPPAKEGWSNAFYDSCVNSVSDPSIFVIFEKHQVYPEYVIQYTTSSKPSVTPSILLALGSLFSSRQ [PARP12]”, the thermal stability score with HeLa Kyoto [1] (setting [5]) is 1.19; with HeLa Kyoto [1] (cell cycle stage: mitosis), 1.46. Also, the melting temperature with HeLa Kyoto [2] (cell cycle stage: G1/S) was 49.2 °C; with HeLa Kyoto [2] (cell cycle stage: mitosis) it was 48.1 °C. Further, the “solubility change mitosis (log2)” value with HeLa Kyoto [3] is -0.0418. Moreover, in the data set with HeLa Kyoto [4], the “solubility in G1/S (log2)” value is -0.201.
